From PMC10288639

Assays:
[1] = molecular target: G120C/H31C HLA-A*02:01/β2m complex (open HLA-A*02:01); assay: fluorescence polarisation
[2] = molecular target: WT HLA-A*02:01/β2m; assay: fluorescence polarisation

“fluorophore-labeled TAX9 (TAMRA-TAX9) (peptide)” was tested, and the fold of the apparent association rate constant k^app on over WT [1] was > 10 fold.
TAX9 (peptide) was tested, and the IC50 [1] was 250 nM and the IC50 [2] was 250 nM.
